Literature values in patent publication US8443799B2, “Dry powder inhalation system for transpulmonary administration” (Otsuka Pharmaceutical Co., Ltd., priority 2001, dated 2013).

Details: disclosure in WO 95/31479

## interferon
  deactivation during the spray drying process: about 25%
